Results from PMC8965321.

Target: GP46 protein of Lactococcus lactis phage vB_Llc_bIBBF13 (F13), purified, SUMO tag removed (Lactococcus lactis phage vB_Llc_bIBBF13 (F13))
Experiment: SEC-MALS; GP46F13 100 ul injected at 1.5 mg/ml on Superdex 200 Increase 10/300, room temperature, 0.5 ml/min, 50 mM Tris-HCl pH 8, 500 mM NaCl, 20 mM imidazole, no cofactors

## GP46 protein of Lactococcus lactis phage vB_Llc_bIBBF13 (F13), purified, SUMO tag removed (enzyme)
  stoichiometry N: 2
